Tests used:
[1] = Perhydrolase activity remaining bound to hair, ABTS assay; assay type: binding, human
Procedure: Ten mg of human hair was submerged in 2 mL of a binding solution containing 50 μg/mL of the Thermotoga maritima perhydrolase targeted to hair via the hair binding peptide HC263 (C277S-HC263; SEQ ID NO: 288; also referred to herein as “HC1121”) in 50 mM pH 7.2 potassium phosphate buffer containing 5% of the test surfactant. The test surfactants were two nonionic surfactants: TWEEN®-20 (Sigma, St Louis, Mo.), and TRITON®-X 100 (Aldrich, St Louis, Mo.), and two ionic surfactants: CHEMBETAINE™ CAD (Cocamidopropyl betaine; Lubrizol, Wickliffe, Ohio) and RHODAPEX® ES-2K (sodium laurel ether sulfate; Rhodia Novecare, Cranbury, N.J.).
Hair was incubated in the binding solution at room temperature (˜22° C.) with gentle agitation for 30 minutes, at which time the solution was removed by aspiration and the hair rinsed with 1% TWEEN®-20 in 50 mM pH 7.2 potassium phosphate buffer. The hair was removed from the tube, blotted dry with paper towel, and transferred to a new set of tubes. The hair was rinsed once with 1% TWEEN®-20 in 50 mM pH 7.2 potassium phosphate buffer and then rinsed three times with 50 mM pH 7.2 potassium phosphate buffer. Perhydrolase activity remaining bound to the hair was determined by the ABTS assay.
The ABTS assay was performed as follows: hair samples treated as described above were transferred to new 2-mL microcentrifuge tubes (Eppendorf Protein LoBind; Eppendorf North America, Hauppauge, N.Y.) To each tube was added 480 μL of PAH buffer (50 mM potassium phosphate, pH 7.2), 14 μL of 39% hydrogen peroxide (Sigma 3410), and 6 μL triacetin (Sigma-Aldrich W200700). The perhydrolase reaction was allowed to proceed for 10 minutes at room temperature (˜22-25° C.). The reaction was stopped by diluting aliquots 10×, 100× and 1000× with 10 mM phosphoric acid. For detection 50 μL of 1 M acetic acid, 50 μL of 40 mg/mL potassium iodide, and 50 μL of 4 mM ABTS (2,2′-azino-bis(3-ethylbenzthiazoline-6-sulphonic acid; Sigma, St Louis, Mo.) were added to 50 μL of the above dilutions. Color was allowed to develop for 10 minutes and read in a spectrophotometer at 405 nm. Values from no-enzyme controls were subtracted to yield values attributable only to enzyme activity. A standard curve of OD 405 nm vs PAA concentration in ppm yielded a conversion factor of 8.75, such that an OD 405 nm of 1.0 corresponded to approximately 8.75 ppm PAA. This value was then multiplied by the appropriate dilution to arrive at the PAA concentration in the perhydrolase reaction.
The Thermotoga maritima perhydrolase targeted to hair via the hair binding peptide HC263 (C277S-HC263; SEQ ID NO: 288) was diluted to 50 μg/mL in a solution of 5% PEG-80 sorbitan laurate in 100 mM citrate-phosphate buffer adjusted to pH 4.9, pH 5.5, pH 6.0, or pH 7.0. Ten mg of human hair was added to 2 mL of the above formulations and incubated with gentle agitation for 5 minutes at room temperature to allow enzyme binding to hair. A no-enzyme control sample was included with each pH. After binding, the binding solution was removed by aspiration and the hair was washed with 2 mL of 1% TWEEN®-20 in 50 mM pH 7.2 potassium phosphate buffer. The hair was removed from the tube, blotted dry with paper towel, and transferred to a new set of tubes. The hair was rinsed once with 1% TWEEN®-20 in 50 mM pH 7.2 potassium phosphate buffer and then rinsed three time with 50 mM pH 7.2 potassium phosphate buffer. Perhydrolase activity remaining bound to the hair was determined by the ABTS assay. The results are given as ppm PAA produced at 10 minutes (after subtraction of the no-enzyme control values)
The Thermotoga maritima perhydrolase targeted to hair via the hair binding peptide HC263 (C277S-HC263; SEQ ID NO: 288) was diluted to 50 μg/mL in a solution of 5% PEG-80 sorbitan laurate in 100 mM citrate-phosphate buffer adjusted to pH 6.0. […]

[2] = Two-step treatment of hair tresses, color loss ΔE; details: 2500 μg/mL (E/H 10), 20 min/cycle, 1 cycle
[3] = 50 μg/mL, pH 6.0, binding 1 min, at 10 minutes

B1: C277S-HC263: C277S variant of Thermotoga maritima perhydrolase fused via a flexible linker to hair-binding domain HC263 (protein)
chain: MAFFDLPLEELKKYRPERYEEKDFDEFWEETLAESEKFPLDPVFERMESHLKTVEAYDVTFSGYRGQRIKGWLLVPKLEEEKLPCVVQYIGYNGGRGFPHDWLFWPSMGYICFVMDTRGQGSGWLKGDTPDYPEGPVDPQYPGFMTRGILDPRTYYYRRVFTDAVRAVEAAASFPQVDQERIVIAGGSQGGGIALAVSALSKKAKALLCDVPFLCHFRRAVQLVDTHPYAEITNFLKTHRDKEEIVFRTLSYFDGVNFAARAKIPALFSVGLMDNISPPSTVFAAYNYYAGPKEIRIYPYNNHEGGGSFQAVEQVKFLKKLFEKGGPGSGGAGSPGSAGGPGSPSAQSQLPDKHSGLHERAPQRYGPEPEPEPEPIPEPPKEAPVVIEKPKPKPKPKPKPPAHDHKNQKETHQRHAAGSGGGGSPHHHHHH
- Perhydrolase Activity Retained on Hair, ppm PAA ([1]; 50 μg/mL enzyme bound 30 min in 5% CHEMBETAINE™ CAD): 455 ppm
- Perhydrolase Activity Retained on Hair, ppm PAA ([1]; 50 μg/mL enzyme bound 30 min in 5% RHODAPEX® ES-2K): 315 ppm
- Perhydrolase Activity Retained on Hair, ppm PAA ([1]; 50 μg/mL enzyme bound 30 min in 5% TRITON®-X 100): 1540 ppm
- Perhydrolase Activity Retained on Hair, ppm PAA ([1]; 50 μg/mL enzyme bound 30 min in 5% TWEEN®-20): 2126 ppm
- ppm PAA ([1]; 50 μg/mL, 5% PEG-80 sorbitan laurate pH 6.0, binding 10 min, PAA at 10 minutes): 581 ppm
- Perhydrolase Activity Deposited on Hair, ppm PAA ([1]; 50 μg/mL, 5% PEG-80 sorbitan laurate pH 6.0, binding time 0.5 min): 954 ppm
- Perhydrolase Activity Deposited on Hair, ppm PAA ([1]; 50 μg/mL, 5% PEG-80 sorbitan laurate, binding 5 min, pH 4.9): 437 ppm
- Perhydrolase Activity Deposited on Hair, ppm PAA ([1]; binding 5 min, pH 5.5): 1312 ppm
- Perhydrolase Activity Deposited on Hair, ppm PAA ([1]; binding 5 min, pH 6.0): 1137 ppm
- Perhydrolase Activity Deposited on Hair, ppm PAA ([1]; binding 5 min, pH 7.0): 385 ppm
- values obtained (ABTS assay) ([1]; bound in 5% CHEMBETAINE™ CAD): 0.52
- values obtained (ABTS assay) ([1]; bound in 5% RHODAPEX® ES-2K): 0.36
- values obtained (ABTS assay) ([1]; bound in 5% TRITON®-X 100): 1.76
- values obtained (ABTS assay) ([1]; bound in 5% TWEEN®-20): 2.43
- Perhydrolase Activity Deposited on Hair, ppm PAA ([1]; pH 6.0, binding time 1 min): 962 ppm
- Perhydrolase Activity Deposited on Hair, ppm PAA ([1]; pH 6.0, binding time 2 min): 988 ppm
- Perhydrolase Activity Deposited on Hair, ppm PAA ([1]; pH 6.0, binding time 5 min): 1093 ppm
- ΔE of color loss [2]: 2

B2: SEQ ID NO: 323: S54V variant of the aryl esterase from Mycobacterium smegmatis fused to hair binding domain HC263 via a flexible linker (protein)
chain: MAKRILCFGDSLTWGWVPVEDGAPTERFAPDVRWTGVLAQQLGADFEVIEEGLVARTTNIDDPTDPRLNGASYLPSCLATHLPLDLVIIMLGTNDTKAYFRRTPLDIALGMSVLVTQVLTSAGGVGTTYPAPKVLVVSPPPLAPMPHPWFQLIFEGGEQKTTELARVYSALASFMKVPFFDAGSVISTDGVDGIHFTEANNRDLGVALAEQVRSLLGPGSGGAGSPGSAGGPGSPSAQSQLPDKHSGLHERAPQRYGPEPEPEPEPIPEPPKEAPVVIEKPKPKPKPKPKPPAHDHKNQKETHQRHAAGSGGGGSPHHHHHH
- ppm PAA ([1]; 50 μg/mL, binding 1 min, hair with no PAA treatment): 269 ppm
- ppm PAA ([1]; 50 μg/mL, binding 1 min, hair with one PAA treatment (0.2% PAA, 1 hr)): 526 ppm
- ppm PAA ([1]; 50 μg/mL, binding 1 min, hair with two PAA treatments): 702 ppm
- OD 405nm [1, 3]: 0.237
- Peracetic acid [1, 3]: 207 ppm

Source: patent US20130171217A1, “ENZYMATIC PERACID GENERATION FOR USE IN SKIN CARE PRODUCTS” (E I DU PONT DE NEMOURS AND COMPANY, priority 2010, published 2013)
